# Laboratory results taken from patent publication US20160039884A1.
# Assays:
# Assay in all cases: cell-based or functional assay
# integrin receptors = biological target: integrin receptors
# α5 integrin subunit = α5 integrin subunit (UniProt P08648)
# α5β1 integrin = α5β1 integrin (UniProt P08648)
# αv integrin = αv integrin (UniProt P06756)
# Sequence of UniProt P06756 (P06756 31-1048 limits assumed): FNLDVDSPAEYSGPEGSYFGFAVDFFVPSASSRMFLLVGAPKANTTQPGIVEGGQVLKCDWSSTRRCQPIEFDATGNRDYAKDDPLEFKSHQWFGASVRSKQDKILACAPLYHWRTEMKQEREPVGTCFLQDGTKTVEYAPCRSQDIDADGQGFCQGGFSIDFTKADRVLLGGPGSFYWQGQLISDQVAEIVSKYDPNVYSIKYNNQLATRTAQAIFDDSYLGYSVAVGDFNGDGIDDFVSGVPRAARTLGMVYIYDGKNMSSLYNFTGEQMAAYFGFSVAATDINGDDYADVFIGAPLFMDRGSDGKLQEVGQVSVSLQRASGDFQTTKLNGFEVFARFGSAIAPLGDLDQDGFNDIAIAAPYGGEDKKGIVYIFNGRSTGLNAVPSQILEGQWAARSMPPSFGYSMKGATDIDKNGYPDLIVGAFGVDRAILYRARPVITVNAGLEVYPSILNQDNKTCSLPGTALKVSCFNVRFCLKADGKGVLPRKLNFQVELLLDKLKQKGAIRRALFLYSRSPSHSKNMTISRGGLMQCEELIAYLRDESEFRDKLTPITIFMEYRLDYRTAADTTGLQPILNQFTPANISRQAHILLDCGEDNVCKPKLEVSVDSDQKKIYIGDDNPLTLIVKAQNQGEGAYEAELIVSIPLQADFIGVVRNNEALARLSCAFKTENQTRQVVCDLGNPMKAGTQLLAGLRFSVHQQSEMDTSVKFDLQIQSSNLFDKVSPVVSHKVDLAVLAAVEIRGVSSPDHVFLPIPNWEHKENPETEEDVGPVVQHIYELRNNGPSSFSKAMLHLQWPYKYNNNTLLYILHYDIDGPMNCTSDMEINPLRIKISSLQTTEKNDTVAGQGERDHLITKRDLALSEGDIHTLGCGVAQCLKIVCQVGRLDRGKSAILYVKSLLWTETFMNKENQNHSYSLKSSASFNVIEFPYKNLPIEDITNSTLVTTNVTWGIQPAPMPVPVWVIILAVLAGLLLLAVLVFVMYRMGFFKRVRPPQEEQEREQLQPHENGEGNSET
Substance,"Fusion (content mixing fusion assay, percent of wild type F) (integrin receptors) [%]",also measured
"hMPV F protein (wild type, strain NL/1/00), expressed from pCAGGS-F",100,reduction of fusion activity (syncytium count) after siRNA knockdown of α5 (α5 integrin subunit): 80%; inhibition of cell-cell fusion (content-mixing fusion assay) by anti-α5β1 antibody (α5β1 integrin): 80%; inhibition of cell-cell fusion (content-mixing fusion assay) by anti-αv antibody (αv integrin): 80%; reduction of fusion activity (syncytium count) after siRNA knockdown of αv (αv integrin): 60%
hMPV F protein mutant D331A,58,
hMPV F protein mutant D331E,118,
hMPV F protein mutant D331R,107,
hMPV F protein mutant G330A,20,
hMPV F protein mutant G330S,9,
hMPV F protein mutant R329A,13,
hMPV F protein mutant R329D,13,
hMPV F protein mutant R329K,72,
